# Data as given in the supplement of paper PMC11316812.
# ± gives the standard deviation of the averaged measurements.
# Assays:
# MCF7 = test: percentage of EdU-negative (G0-arrested) nuclei per well, 72 h; higher = more G0 arrest; details: reference: sequence is the full UniProt precursor, the tested protein was the secreted form or ectodomain
# hTERT-HMEC = test: as above; details: reference: sequence is the full UniProt precursor, the tested protein was the secreted form or ectodomain
# [1] = protein concentration 0.02775 µM
# [2] = protein concentration 0.2775 µM
# [3] = protein concentration 0.0225 µM
# [4] = protein concentration 0.03125 µM
# [5] = protein concentration 0.3125 µM
# [6] = protein concentration 0.0357143 µM
# [7] = protein concentration 0.357143 µM
# [8] = protein concentration 0.0165825 µM
# [9] = protein concentration 0.165825 µM
# [10] = protein concentration 0.0257143 µM
# [11] = protein concentration 0.257143 µM
# 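Note: secreted proteins added to cultured cells, EdU pulse at the end, nuclei found by Hoechst imaging, EdU status from nuclear versus surrounding ring intensity ratio, PBS as neutral control.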
# Q9BZP6, sequence (chain, as listed by the source): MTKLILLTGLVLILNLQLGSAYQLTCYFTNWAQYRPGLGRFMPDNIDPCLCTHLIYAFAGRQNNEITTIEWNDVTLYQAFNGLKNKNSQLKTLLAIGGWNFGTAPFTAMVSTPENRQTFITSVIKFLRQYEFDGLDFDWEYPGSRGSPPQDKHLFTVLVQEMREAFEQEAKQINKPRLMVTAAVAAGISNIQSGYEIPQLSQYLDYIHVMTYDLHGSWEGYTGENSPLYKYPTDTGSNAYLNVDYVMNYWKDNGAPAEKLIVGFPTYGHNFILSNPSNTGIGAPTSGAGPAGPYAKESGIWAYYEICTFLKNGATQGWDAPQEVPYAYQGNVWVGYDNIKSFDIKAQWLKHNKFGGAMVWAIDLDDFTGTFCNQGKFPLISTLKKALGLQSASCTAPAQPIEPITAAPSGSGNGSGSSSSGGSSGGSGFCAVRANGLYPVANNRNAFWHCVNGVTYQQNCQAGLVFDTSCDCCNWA
Substance,percentage of EdU-negative (MCF7; [3]) [%],percentage of EdU-negative (MCF7; protein concentration 0.225 µM) [%],percentage of EdU-negative (hTERT-HMEC; [3]) [%],percentage of EdU-negative (hTERT-HMEC; protein concentration 0.225 µM) [%],other results
MRFFCARCCSFGPEMPAVQLLLLACLVWDVGARTAQLRKANDQSGRCQYTFSVASPNESSCPEQSQAMSVIHNLQRDSSTQRLDLEATKARLSSLESLLHQLTLDQAARPQETQEGLQRELGTLRRERDQLETQTRELETAYSNLLRDKSVLEEEKKRLRQENENLARRLESSSQEVARLRRGQCPQTRDTARAVPPGSREVSTWNLDTLAFQELKSELTEVPASRILKESPSGYLRSGEGDTGCGELVWVGEPLTLRTAETITGKYGVWMRDPKPTYPYTQETTWRIDTVGTDVRQVFEYDLISQFMQGYPSKVHILPRPLESTGAVVYSGSLYFQGAESRTVIRYELNTETVKAEKEIPGAGYHGQFPYSWGGYTDIDLAVDEAGLWVIYSTDEAKGAIVLSKLNPENLELEQTWETNIRKQSVANAFIICGTLYTVSSYTSADATVNFAYDTGTGISKTLTIPFKNRYKYSSMIDYNPLEKKLFAWDNLNMVTYDIKLSKM,–,–,–,–,percentage of EdU-negative (MCF7; [1]): 23.1 ± 3.6%; percentage of EdU-negative (MCF7; [2]): 22.8 ± 0.49%; percentage of EdU-negative (hTERT-HMEC; [1]): 5.22 ± 0.79%; percentage of EdU-negative (hTERT-HMEC; [2]): 5.83 ± 0.68%
MLGVLELLLLGAAWLAGPARGQNETEPIVLEGKCLVVCDSNPTSDPTGTALGISVRSGSAKVAFSAIRSTNHEPSEMSNRTMIIYFDQVLVNIGNNFDSERSTFIAPRKGIYSFNFHVVKVYNRQTIQVSLMLNGWPVISAFAGDQDVTREAASNGVLIQMEKGDRAYLKLERGNLMGGWKYSTFSGFLVFPL,24.7 ± 1.6,24.9 ± 2.3,5.16 ± 0.97,5.71 ± 0.24,–
MCVGARRLGRGPCAALLLLGLGLSTVTGLHCVGDTYPSNDRCCHECRPGNGMVSRCSRSQNTVCRPCGPGFYNDVVSSKPCKPCTWCNLRSGSERKQLCTATQDTVCRCRAGTQPLDSYKPGVDCAPCPPGHFSPGDNQACKPWTNCTLAGKHTLQPASNSSDAICEDRDPPATQPQETQGPPARPITVQPTEAWPRTSQGPSTRPVEVPGGRAVAAILGLGLVLGLLGPLAILLALYLLRRDQRLPPDAHKPPGGGSFRTPIQEEQADAHSTLAKI,24.5 ± 3.6,26 ± 1.2,5.89 ± 1,6.68 ± 0.33,–
MLWLFQSLLFVFCFGPGNVVSQSSLTPLMVNGILGESVTLPLEFPAGEKVNFITWLFNETSLAFIVPHETKSPEIHVTNPKQGKRLNFTQSYSLQLSNLKMEDTGSYRAQISTKTSAKLSSYTLRILRQLRNIQVTNHSQLFQNMTCELHLTCSVEDADDNVSFRWEALGNTLSSQPNLTVSWDPRISSEQDYTCIAENAVSNLSFSVSAQKLCEDVKIQYTDTKMILFMVSGICIVFGFIILLLLVLRKRRDSLSLSTQRTQGPAESARNLEYVSVSPTNNTVYASVTHSNRETEIWTPRENDTITIYSTINHSKESKPTFSRATALDNVV [Q96DU3],24.69 ± 0.12,25 ± 1.3,4.5 ± 0.13,5.94 ± 1.1,–
MKVVPSLLLSVLLAQVWLVPGLAPSPQSPETPAPQNQTSRVVQAPKEEEEDEQEASEEKASEEEKAWLMASRQQLAKETSNFGFSLLRKISMRHDGNMVFSPFGMSLAMTGLMLGATGPTETQIKRGLHLQALKPTKPGLLPSLFKGLRETLSRNLELGLTQGSFAFIHKDFDVKETFFNLSKRYFDTECVPMNFRNASQAKRLMNHYINKETRGKIPKLFDEINPETKLILVDYILFKGKWLTPFDPVFTEVDTFHLDKYKTIKVPMMYGAGKFASTFDKNFRCHVLKLPYQGNATMLVVLMEKMGDHLALEDYLTTDLVETWLRNMKTRNMEVFFPKFKLDQKYEMHELLRQMGIRRIFSPFADLSELSATGRNLQVSRVLQRTVIEVDERGTEAVAGILSEITAYSMPPVIKVDRPFHFMIYEETSGMLLFLGRVVNPTLL [Q9UK55],–,–,–,–,percentage of EdU-negative (MCF7; [4]): 24.6 ± 0.79%; percentage of EdU-negative (MCF7; [5]): 29.5 ± 0.31%; percentage of EdU-negative (hTERT-HMEC; [4]): 4.46 ± 0.39%; percentage of EdU-negative (hTERT-HMEC; [5]): 11.5 ± 0.79%
MAVFKTTLWRLISGTLGIICLSLMSTLGILLKNSFTKLSIEPAFTPGPNIELQKDSDCCSCQEKWVGYRCNCYFISSEQKTWNESRHLCASQKSSLLQLQNTDELDFMSSSQQFYWIGLSYSEEHTAWLWENGSALSQYLFPSFETFNTKNCIAYNPNGNALDESCEDKNRYICKQQLI,26.6 ± 3,25.3 ± 3.1,4.98 ± 0.64,5.53 ± 0.17,–
MASEIHMTGPMCLIENTNGRLMANPEALKILSAITQPMVVVAIVGLYRTGKSYLMNKLAGKKKGFSLGSTVQSHTKGIWMWCVPHPKKPGHILVLLDTEGLGDVEKGDNQNDSWIFALAVLLSSTFVYNSIGTINQQAMDQLYYVTELTHRIRSKSSPDENENEVEDSADFVSFFPDFVWTLRDFSLDLEADGQPLTPDEYLTYSLKLKKGTSQKDETFNLPRLCIRKFFPKKKCFVFDRPVHRRKLAQLEKLQDEELDPEFVQQVADFCSYIFSNSKTKTLSGGIQVNGPRLESLVLTYVNAISSGDLPCMENAVLALAQIENSAAVQKAIAHYEQQMGQKVQLPTETLQELLDLHRDSEREAIEVFIRSSFKDVDHLFQKELAAQLEKKRDDFCKQNQEASSDRCSALLQVIFSPLEEEVKAGIYSKPGGYRLFVQKLQDLKKKYYEEPRKGIQAEEILQTYLKSKESMTDAILQTDQTLTEKEKEIEVERVKAESAQASAKMLQEMQRKNEQMMEQKERSYQEHLKQLTEKMENDRVQLLKEQERTLALKLQEQEQLLKEGFQKESRIMKNEIQDLQTKMRRRKACTIS,26.5 ± 3.6,29.1 ± 1.2,4.44 ± 0.5,12.6 ± 1.4,–
Q9BZP6,–,–,–,–,percentage of EdU-negative (MCF7; [6]): 23.1 ± 1.2%; percentage of EdU-negative (MCF7; [7]): 27.6 ± 0.63%; percentage of EdU-negative (hTERT-HMEC; [6]): 5.02 ± 0.9%; percentage of EdU-negative (hTERT-HMEC; [7]): 6.66 ± 0.26%
MKGLAAALLVLVCTMALCSCAQVGTNKELCCLVYTSWQIPQKFIVDYSETSPQCPKPGVILLTKRGRQICADPNKKWVQKYISDLKLNA,–,–,–,–,percentage of EdU-negative (MCF7; [8]): 26.2 ± 1.5%; percentage of EdU-negative (MCF7; [9]): 24.6 ± 2.4%; percentage of EdU-negative (hTERT-HMEC; [8]): 5.34 ± 1.1%; percentage of EdU-negative (hTERT-HMEC; [9]): 5.89 ± 1.1%
MRLPLLLVFASVIPGAVLLLDTRQFLIYNEDHKRCVDAVSPSAVQTAACNQDAESQKFRWVSESQIMSVAFKLCLGVPSKTDWVAITLYACDSKSEFQKWECKNDTLLGIKGEDLFFNYGNRQEKNIMLYKGSGLWSRWKIYGTTDNLCSRGYEAMYTLLGNANGATCAFPFKFENKWYADCTSAGRSDGWLWCGTTTDYDTDKLFGYCPLKFEGSESLWNKDPLTSVSYQINSKSALTWHQARKSCQQQNAELLSITEIHEQTYLTGLTSSLTSGLWIGLNSLSFNSGWQWSDRSPFRYLNWLPGSPSAEPGKSCVSLNPGKNAKWENLECVQKLGYICKKGNTTLNSFVIPSESDVPTHCPSQWWPYAGHCYKIHRDEKKIQRDALTTCRKEGGDLTSIHTIEELDFIISQLGYEPNDELWIGLNDIKIQMYFEWSDGTPVTFTKWLRGEPSHENNRQEDCVVMKGKDGYWADRGCEWPLGYICKMKSRSQGPEIVEVEKGCRKGWKKHHFYCYMIGHTLSTFAEANQTCNNENAYLTTIEDRYEQAFLTSFVGLRPEKYFWTGLSDIQTKGTFQWTIEEEVRFTHWNSDMPGRKPGCVAMRTGIAGGLWDVLKCDEKAKFVCKHWAEGVTHPPKPTTTPEPKCPEDWGASSRTSLCFKLYAKGKHEKKTWFESRDFCRALGGDLASINNKEEQQTIWRLITASGSYHKLFWLGLTYGSPSEGFTWSDGSPVSYENWAYGEPNNYQNVEYCGELKGDPTMSWNDINCEHLNNWICQIQKGQTPKPEPTPAPQDNPPVTEDGWVIYKDYQYYFSKEKETMDNARAFCKRNFGDLVSIQSESEKKFLWKYVNRNDAQSAYFIGLLISLDKKFAWMDGSKVDYVSWATGEPNFANEDENCVTMYSNSGFWNDINCGYPNAFICQRHNSSINATTVMPTMPSVPSGCKEGWNFYSNKCFKIFGFMEEERKNWQEARKACIGFGGNLVSIQNEKEQAFLTYHMKDSTFSAWTGLNDVNSEHTFLWTDGRGVHYTNWGKGYPGGRRSSLSYEDADCVVIIGGASNEAGKWMDDTCDSKRGYICQTRSDPSLTNPPATIQTDGFVKYGKSSYSLMRQKFQWHEAETYCKLHNSLIASILDPYSNAFAWLQMETSNERVWIALNSNLTDNQYTWTDKWRVRYTNWAADEPKLKSACVYLDLDGYWKTAHCNESFYFLCKRSDEIPATEPPQLPGRCPESDHTAWIPFHGHCYYIESSYTRNWGQASLECLRMGSSLVSIESAAESSFLSYRVEPLKSKTNFWIGLFRNVEGTWLWINNSPVSFVNWNTGDPSGERNDCVALHASSGFWSNIHCSSYKGYICKRPKIIDAKPTHELLTTKADTRKMDPSKPSSNVAGVVIIVILLILTGAGLAAYFFYKKRRVHLPQEGAFENTLYFNSQSSPGTSDMKDLVGNIEQNEHSVI,–,–,–,–,percentage of EdU-negative (MCF7; protein concentration 0.007 µM): 24.1 ± 0.79%; percentage of EdU-negative (MCF7; protein concentration 0.07 µM): 24 ± 0.4%; percentage of EdU-negative (hTERT-HMEC; protein concentration 0.007 µM): 4.48 ± 0.71%; percentage of EdU-negative (hTERT-HMEC; protein concentration 0.07 µM): 5.07 ± 0.13%
MRLPGVPLARPALLLLLPLLAPLLGTGAPAELRVRVRLPDGQVTEESLQADSDADSISLELRKPDGTLVSFTADFKKDVKVFRALILGELEKGQSQFQALCFVTQLQHNEIIPSEAMAKLRQKNPRAVRQAEEVRGLEHLHMDVAVNFSQGALLSPHLHNVCAEAVDAIYTRQEDVRFWLEQGVDSSVFEALPKASEQAELPRCRQVGDHGKPCVCRYGLSLAWYPCMLKYCHSRDRPTPYKCGIRSCQKSYSFDFYVPQRQLCLWDEDPYPG [Q86UD1],26.92 ± 0.26,29.75 ± 0.17,4.6 ± 0.4,14.9 ± 2,–
MWLRLGPPSLSLSPKPTVGRSLCLTLWFLSLALRASTQAPAPTVNTHFGKLRGARVPLPSEILGPVDQYLGVPYAAPPIGEKRFLPPEPPPSWSGIRNATHFPPVCPQNIHTAVPEVMLPVWFTANLDIVATYIQEPNEDCLYLNVYVPTEDVKRISKECARKPNKKICRKGGSGAKKQGEDLADNDGDEDEDIRDSGAKPVMVYIHGGSYMEGTGNMIDGSILASYGNVIVITLNYRVGVLGFLSTGDQAAKGNYGLLDQIQALRWVSENIAFFGGDPRRITVFGSGIGASCVSLLTLSHHSEGLFQRAIIQSGSALSSWAVNYQPVKYTSLLADKVGCNVLDTVDMVDCLRQKSAKELVEQDIQPARYHVAFGPVIDGDVIPDDPEILMEQGEFLNYDIMLGVNQGEGLKFVEGVVDPEDGVSGTDFDYSVSNFVDNLYGYPEGKDTLRETIKFMYTDWADRDNPETRRKTLVALFTDHQWVEPSVVTADLHARYGSPTYFYAFYHHCQSLMKPAWSDAAHGDEVPYVFGVPMVGPTDLFPCNFSKNDVMLSAVVMTYWTNFAKTGDPNKPVPQDTKFIHTKANRFEEVAWSKYNPRDQLYLHIGLKPRVRDHYRATKVAFWKHLVPHLYNLHDMFHYTSTTTKVPPPDTTHSSHITRRPNGKTWSTKRPAISPAYSNENAQGSWNGDQDAGPLLVENPRDYSTELSVTIAVGASLLFLNVLAFAALYYRKDKRRQEPLRQPSPQRGAGAPELGAAPEEELAALQLGPTHHECEAGPPHDTLRLTALPDYTLTLRRSPDDIPLMTPNTITMIPNSLVGLQTLHPYNTFAAGFNSTGLPHSHSTTRV [Q9NZ94],–,–,–,–,percentage of EdU-negative (MCF7; [10]): 24.2 ± 1.1%; percentage of EdU-negative (MCF7; [11]): 24.1 ± 1.1%; percentage of EdU-negative (hTERT-HMEC; [10]): 5.8 ± 1.5%; percentage of EdU-negative (hTERT-HMEC; [11]): 10.2 ± 2.3%
MAWPLCTLLLLLATQAVALAWSPQEEDRIIEGGIYDADLNDERVQRALHFVISEYNKATEDEYYRRLLRVLRAREQIVGGVNYFFDIEVGRTICTKSQPNLDTCAFHEQPELQKKQLCSFQIYEVPWEDRMSLVNSRCQEA,25.7 ± 2.2,24 ± 0.52,4.46 ± 0.44,5.26 ± 0.68,–
